In patent US20240287154A1, “MC3R AGONIST PEPTIDES” (The Regents of the University of Michigan, priority 2021, published 2024):
Non-standard residues stand in square brackets, D forms with d. Phe(4-I) = N[C@@H](Cc1ccc(I)cc1)C(=O)O; NMeY = CN[C@@H](Cc1ccc(O)cc1)C(=O)O; Nle = CCCC[C@H](N)C(=O)O; dAbu = CC[C@@H](N)C(=O)O; Aib = CC(C)(N)C(=O)O

B1: CTX-1534 (peptide)
peptide: Ac-[Nle][dA]HFR[dW]DAFG-OH
SMILES: CCCC[C@H](NC(C)=O)C(=O)N[C@H](C)C(=O)N[C@@H](Cc1c[nH]cn1)C(=O)N[C@@H](Cc1ccccc1)C(=O)N[C@@H](CCCNC(=N)N)C(=O)N[C@H](Cc1c[nH]c2ccccc12)C(=O)N[C@@H](CC(=O)O)C(=O)N[C@@H](C)C(=O)N[C@@H](Cc1ccccc1)C(=O)NCC(=O)O
B2: CTX-1535 (peptide)
peptide: Ac-[Nle][dA]HFR[dW]DKFG-OH
SMILES: CCCC[C@H](NC(C)=O)C(=O)N[C@H](C)C(=O)N[C@@H](Cc1c[nH]cn1)C(=O)N[C@@H](Cc1ccccc1)C(=O)N[C@@H](CCCNC(=N)N)C(=O)N[C@H](Cc1c[nH]c2ccccc12)C(=O)N[C@@H](CC(=O)O)C(=O)N[C@@H](CCCCN)C(=O)N[C@@H](Cc1ccccc1)C(=O)NCC(=O)O
B3: CTX-1536 (peptide)
peptide: Ac-[Nle][dA]HFR[dW]DRPG-OH
SMILES: CCCC[C@H](NC(C)=O)C(=O)N[C@H](C)C(=O)N[C@@H](Cc1c[nH]cn1)C(=O)N[C@@H](Cc1ccccc1)C(=O)N[C@@H](CCCNC(=N)N)C(=O)N[C@H](Cc1c[nH]c2ccccc12)C(=O)N[C@@H](CC(=O)O)C(=O)N[C@@H](CCCNC(=N)N)C(=O)N1CCC[C@H]1C(=O)NCC(=O)O
B4: CTX-1131 (peptide)
peptide: H-YV[Nle][dAbu]HFR[dW]D-NH2
SMILES: CCCC[C@H](NC(=O)[C@@H](NC(=O)[C@@H](N)Cc1ccc(O)cc1)C(C)C)C(=O)N[C@H](CC)C(=O)N[C@@H](Cc1c[nH]cn1)C(=O)N[C@@H](Cc1ccccc1)C(=O)N[C@@H](CCCNC(=N)N)C(=O)N[C@H](Cc1c[nH]c2ccccc12)C(=O)N[C@@H](CC(=O)O)C(N)=O
B5: CTX-1537 (peptide)
peptide: Ac-[Nle][dA]HFR[dW]DRAG-OH
SMILES: CCCC[C@H](NC(C)=O)C(=O)N[C@H](C)C(=O)N[C@@H](Cc1c[nH]cn1)C(=O)N[C@@H](Cc1ccccc1)C(=O)N[C@@H](CCCNC(=N)N)C(=O)N[C@H](Cc1c[nH]c2ccccc12)C(=O)N[C@@H](CC(=O)O)C(=O)N[C@@H](CCCNC(=N)N)C(=O)N[C@@H](C)C(=O)NCC(=O)O
B6: CTX-1538 (peptide)
peptide: Ac-[Nle][dA]HFR[dW]DRFV-OH
SMILES: CCCC[C@H](NC(C)=O)C(=O)N[C@H](C)C(=O)N[C@@H](Cc1c[nH]cn1)C(=O)N[C@@H](Cc1ccccc1)C(=O)N[C@@H](CCCNC(=N)N)C(=O)N[C@H](Cc1c[nH]c2ccccc12)C(=O)N[C@@H](CC(=O)O)C(=O)N[C@@H](CCCNC(=N)N)C(=O)N[C@@H](Cc1ccccc1)C(=O)N[C@H](C(=O)O)C(C)C
B7: CTX-1540 (peptide)
peptide: Ac-[Nle][dA]HFR[dW]G-NH2
SMILES: CCCC[C@H](NC(C)=O)C(=O)N[C@H](C)C(=O)N[C@@H](Cc1c[nH]cn1)C(=O)N[C@@H](Cc1ccccc1)C(=O)N[C@@H](CCCNC(=N)N)C(=O)N[C@H](Cc1c[nH]c2ccccc12)C(=O)NCC(N)=O
B8: CTX-1541 (peptide)
peptide: Ac-[Nle][dA]HFR[dW]F-NH2
SMILES: CCCC[C@H](NC(C)=O)C(=O)N[C@H](C)C(=O)N[C@@H](Cc1c[nH]cn1)C(=O)N[C@@H](Cc1ccccc1)C(=O)N[C@@H](CCCNC(=N)N)C(=O)N[C@H](Cc1c[nH]c2ccccc12)C(=O)N[C@@H](Cc1ccccc1)C(N)=O
B9: CTX-1542 (peptide)
peptide: Ac-[Nle][dA]HFR[dW][dF]-NH2
SMILES: CCCC[C@H](NC(C)=O)C(=O)N[C@H](C)C(=O)N[C@@H](Cc1c[nH]cn1)C(=O)N[C@@H](Cc1ccccc1)C(=O)N[C@@H](CCCNC(=N)N)C(=O)N[C@H](Cc1c[nH]c2ccccc12)C(=O)N[C@H](Cc1ccccc1)C(N)=O
B10: CTX-1543 (peptide)
peptide: Ac-[Nle][dA]H[Phe(4-I)]R[dW]G-NH2
SMILES: CCCC[C@H](NC(C)=O)C(=O)N[C@H](C)C(=O)N[C@@H](Cc1c[nH]cn1)C(=O)N[C@@H](Cc1ccc(I)cc1)C(=O)N[C@@H](CCCNC(=N)N)C(=O)N[C@H](Cc1c[nH]c2ccccc12)C(=O)NCC(N)=O
B11: CTX-1545 (peptide)
peptide: Ac-[Nle][Aib]H[Phe(4-I)]R[dW]G-NH2
SMILES: CCCC[C@H](NC(C)=O)C(=O)NC(C)(C)C(=O)N[C@@H](Cc1c[nH]cn1)C(=O)N[C@@H](Cc1ccc(I)cc1)C(=O)N[C@@H](CCCNC(=N)N)C(=O)N[C@H](Cc1c[nH]c2ccccc12)C(=O)NCC(N)=O
B12: CTX-1547 (peptide)
peptide: H-MGHFR[dW]DRFG-OH
SMILES: CSCC[C@H](N)C(=O)NCC(=O)N[C@@H](Cc1c[nH]cn1)C(=O)N[C@@H](Cc1ccccc1)C(=O)N[C@@H](CCCNC(=N)N)C(=O)N[C@H](Cc1c[nH]c2ccccc12)C(=O)N[C@@H](CC(=O)O)C(=O)N[C@@H](CCCNC(=N)N)C(=O)N[C@@H](Cc1ccccc1)C(=O)NCC(=O)O
B13: CTX-1132 (peptide)
peptide: H-YV[Nle][dF]HFR[dW]D-NH2
SMILES: CCCC[C@H](NC(=O)[C@@H](NC(=O)[C@@H](N)Cc1ccc(O)cc1)C(C)C)C(=O)N[C@H](Cc1ccccc1)C(=O)N[C@@H](Cc1c[nH]cn1)C(=O)N[C@@H](Cc1ccccc1)C(=O)N[C@@H](CCCNC(=N)N)C(=O)N[C@H](Cc1c[nH]c2ccccc12)C(=O)N[C@@H](CC(=O)O)C(N)=O
B14: CTX-1548 (peptide)
peptide: H-YVMGRFR[dW]DRFG-OH
SMILES: CSCC[C@H](NC(=O)[C@@H](NC(=O)[C@@H](N)Cc1ccc(O)cc1)C(C)C)C(=O)NCC(=O)N[C@@H](CCCNC(=N)N)C(=O)N[C@@H](Cc1ccccc1)C(=O)N[C@@H](CCCNC(=N)N)C(=O)N[C@H](Cc1c[nH]c2ccccc12)C(=O)N[C@@H](CC(=O)O)C(=O)N[C@@H](CCCNC(=N)N)C(=O)N[C@@H](Cc1ccccc1)C(=O)NCC(=O)O
B15: CTX-1130 (peptide)
peptide: H-YV[Nle][Aib]HFR[dW]D-NH2
SMILES: CCCC[C@H](NC(=O)[C@@H](NC(=O)[C@@H](N)Cc1ccc(O)cc1)C(C)C)C(=O)NC(C)(C)C(=O)N[C@@H](Cc1c[nH]cn1)C(=O)N[C@@H](Cc1ccccc1)C(=O)N[C@@H](CCCNC(=N)N)C(=O)N[C@H](Cc1c[nH]c2ccccc12)C(=O)N[C@@H](CC(=O)O)C(N)=O
B16: CTX-1142 (peptide)
peptide: H-[dY]V[Nle][dA]HFR[dW]D-NH2
SMILES: CCCC[C@H](NC(=O)[C@@H](NC(=O)[C@H](N)Cc1ccc(O)cc1)C(C)C)C(=O)N[C@H](C)C(=O)N[C@@H](Cc1c[nH]cn1)C(=O)N[C@@H](Cc1ccccc1)C(=O)N[C@@H](CCCNC(=N)N)C(=O)N[C@H](Cc1c[nH]c2ccccc12)C(=O)N[C@@H](CC(=O)O)C(N)=O
B17: CTX-1141 (peptide)
peptide: H-[NMeY]V[Nle][dA]HFR[dW]D-NH2
SMILES: CCCC[C@H](NC(=O)[C@@H](NC(=O)[C@H](Cc1ccc(O)cc1)NC)C(C)C)C(=O)N[C@H](C)C(=O)N[C@@H](Cc1c[nH]cn1)C(=O)N[C@@H](Cc1ccccc1)C(=O)N[C@@H](CCCNC(=N)N)C(=O)N[C@H](Cc1c[nH]c2ccccc12)C(=O)N[C@@H](CC(=O)O)C(N)=O
B18: CTX-1105 (peptide)
peptide: H-YVEGHFR[dW]DRFG-NH2
SMILES: CC(C)[C@H](NC(=O)[C@@H](N)Cc1ccc(O)cc1)C(=O)N[C@@H](CCC(=O)O)C(=O)NCC(=O)N[C@@H](Cc1c[nH]cn1)C(=O)N[C@@H](Cc1ccccc1)C(=O)N[C@@H](CCCNC(=N)N)C(=O)N[C@H](Cc1c[nH]c2ccccc12)C(=O)N[C@@H](CC(=O)O)C(=O)N[C@@H](CCCNC(=N)N)C(=O)N[C@@H](Cc1ccccc1)C(=O)NCC(N)=O

target: human MC3R (human, UniProt P41968 1-323); test: cell-based or functional assay
Sequence (P41968 whole entry): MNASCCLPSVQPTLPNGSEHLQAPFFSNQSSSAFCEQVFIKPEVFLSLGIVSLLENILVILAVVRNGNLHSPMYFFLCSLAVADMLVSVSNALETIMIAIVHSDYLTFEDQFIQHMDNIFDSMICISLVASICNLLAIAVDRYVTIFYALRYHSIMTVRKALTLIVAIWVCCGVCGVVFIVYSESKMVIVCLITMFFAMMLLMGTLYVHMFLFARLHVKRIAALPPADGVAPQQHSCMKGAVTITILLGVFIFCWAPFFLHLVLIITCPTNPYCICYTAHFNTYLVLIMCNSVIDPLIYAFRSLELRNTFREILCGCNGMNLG

MC3R cAMP (EC50)	MC3R selectivity (relative to MC4R)	Binder
38.8 nM	186	B1
6 nM	1590	B2
73 nM	72	B3
6.6 nM	65	B4
25.5 nM	278	B5
7.4 nM	1280	B6
47.1 nM	16	Ac-[Nle][dA]HFR[dW]-NH2 [CTX-1539]
25.1 nM	11	B7
65.2 nM	9	B8
64.6 nM	15	B9
3.1 nM	202	B10
51.6 nM	14	B11
1.7 nM	51	H-VMGHFR[dW]DRFG-OH [CTX-1546]
1.5 nM	54	B12
3.9 nM	6.8	B13
3.8 nM	267	B14
2.4 nM	102	YVXGRFRWDRFG (Nle at 3; D-Trp at 8) [CTX-1549]
2.5 nM	566	YVXXHFRWDRFG (Nle at 3; Aib at 4; D-Trp at 8) [CTX-1134]
26.5 nM	58	B15
36 nM	54	B16
2.2 nM	55	B17
4.3 nM	229	YVXAHFRWDRFG (Nle at 3; D-Ala at 4; D-Trp at 8) [CTX-1103]
3 nM	43	YVXAHFRWDRFG (Nle at 3; D-Ala at 4; D-Trp at 8; D-Arg at 10) [CTX-1126]
2.5 nM	95	YVXAHFRWDRFG (Nle at 3; D-Ala at 4; D-Trp at 8; D-Phe at 11) [CTX-1127]
20 nM	500	B18
